Source: patent US20260167699A1 (Chugai, published 2026)

T1: FcγRIIa(R) (human, UniProt P12318 34-217)
T1 construct: extracellular domain; also called 2aR
T1 sequence: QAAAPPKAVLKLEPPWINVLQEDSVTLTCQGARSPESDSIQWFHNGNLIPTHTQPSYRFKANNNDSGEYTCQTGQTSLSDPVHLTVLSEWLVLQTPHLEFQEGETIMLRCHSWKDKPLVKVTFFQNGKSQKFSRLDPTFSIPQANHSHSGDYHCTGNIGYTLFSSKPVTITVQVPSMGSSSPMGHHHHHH

T2: FcγRIIa(H) (human, UniProt P12318 34-217)
T2 construct: extracellular domain; also called 2aH
T2 sequence: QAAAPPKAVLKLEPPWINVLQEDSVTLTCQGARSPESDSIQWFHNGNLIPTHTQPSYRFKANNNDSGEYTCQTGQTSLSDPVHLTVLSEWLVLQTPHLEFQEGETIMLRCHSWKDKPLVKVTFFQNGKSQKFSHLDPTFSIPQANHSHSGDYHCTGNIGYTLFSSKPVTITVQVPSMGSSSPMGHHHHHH

T3: FcγRIIb (human, UniProt P31994 43-217)
T3 construct: extracellular domain; also called 2b
T3 sequence: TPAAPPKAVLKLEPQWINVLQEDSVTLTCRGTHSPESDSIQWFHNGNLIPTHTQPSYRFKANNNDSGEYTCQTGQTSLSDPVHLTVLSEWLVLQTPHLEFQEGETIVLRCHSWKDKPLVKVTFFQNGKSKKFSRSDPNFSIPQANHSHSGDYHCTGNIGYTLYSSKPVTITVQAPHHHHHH

T4: FcγRIIa(R) extracellular domain with C-terminal His tag (human, UniProt P12318 34-217)
T4 construct: extracellular domain; R131 allotype; also called 2aR; CD32
T4 sequence: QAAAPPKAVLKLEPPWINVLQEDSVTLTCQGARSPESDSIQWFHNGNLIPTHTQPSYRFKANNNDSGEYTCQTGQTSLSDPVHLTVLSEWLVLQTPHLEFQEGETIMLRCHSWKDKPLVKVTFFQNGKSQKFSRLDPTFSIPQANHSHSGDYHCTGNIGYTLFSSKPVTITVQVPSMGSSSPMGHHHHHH

T5: FcγRIIa(H) extracellular domain with C-terminal His tag (human, UniProt P12318 34-217)
T5 construct: extracellular domain; H131 allotype; also called 2aH; CD32
T5 sequence: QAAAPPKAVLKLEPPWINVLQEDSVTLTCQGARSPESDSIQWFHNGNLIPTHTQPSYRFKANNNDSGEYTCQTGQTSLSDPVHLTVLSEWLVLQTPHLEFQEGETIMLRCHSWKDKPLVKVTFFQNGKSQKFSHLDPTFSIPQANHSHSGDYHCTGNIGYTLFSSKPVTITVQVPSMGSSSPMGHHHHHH

T6: FcγRIIb extracellular domain with C-terminal His tag (human, UniProt P31994 43-217)
T6 construct: extracellular domain; also called 2b; CD32
T6 sequence: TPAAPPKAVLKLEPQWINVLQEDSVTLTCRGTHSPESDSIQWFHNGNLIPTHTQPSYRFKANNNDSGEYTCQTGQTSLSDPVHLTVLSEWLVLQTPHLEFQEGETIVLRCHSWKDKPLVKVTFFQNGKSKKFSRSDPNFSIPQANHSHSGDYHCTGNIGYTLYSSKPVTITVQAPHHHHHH


Assays:
FcγRIa = target: T7, FcγRIa (human, UniProt P12314 16-292); experiment: SPR, relative to GpH7-A5/GpH7-B3/GpL16-k0 =100
T7 construct: extracellular domain; also called 1a
T7 sequence (P12314 other isoform, or with tags, fused parts or gaps): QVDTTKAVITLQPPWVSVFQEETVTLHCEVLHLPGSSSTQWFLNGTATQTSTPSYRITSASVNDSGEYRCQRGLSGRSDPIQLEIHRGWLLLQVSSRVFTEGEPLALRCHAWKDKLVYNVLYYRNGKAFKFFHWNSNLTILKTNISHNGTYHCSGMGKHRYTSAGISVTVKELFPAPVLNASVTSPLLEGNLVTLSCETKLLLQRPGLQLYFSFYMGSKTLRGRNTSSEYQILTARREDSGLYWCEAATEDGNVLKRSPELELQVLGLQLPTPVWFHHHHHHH

FcγRIIa(R) = target: T1, FcγRIIa(R); experiment: SPR, relative to GpH7-A5/GpH7-B3/GpL16-k0 =100
FcγRIIa(H) = target: T2, FcγRIIa(H); experiment: SPR, relative to GpH7-A5/GpH7-B3/GpL16-k0 =100
FcγRIIb = target: T3, FcγRIIb; experiment: SPR, relative to GpH7-A5/GpH7-B3/GpL16-k0 =100
[1] = target: T8, FcγRIa extracellular domain with C-terminal His tag (human, UniProt P12314 16-292); experiment: SPR; % of GpH7-A5/GpH7-B3/GpL16-k0
T8 construct: extracellular domain; also called 1a; CD64
T8 sequence (P12314 other isoform, or with tags, fused parts or gaps): as above

[2] = target: T4, FcγRIIa(R) extracellular domain with …; experiment: SPR; % of GpH7-A5/GpH7-B3/GpL16-k0
[3] = target: T5, FcγRIIa(H) extracellular domain with …; experiment: SPR; % of GpH7-A5/GpH7-B3/GpL16-k0
[4] = target: T6, FcγRIIb extracellular domain with …; experiment: SPR; % of GpH7-A5/GpH7-B3/GpL16-k0
[5] = target: T9, FcγRIIIa extracellular domain with C-terminal His tag (human, UniProt P08637 17-208); experiment: SPR; % of GpH7-A5/GpH7-B3/GpL16-k0
T9 construct: extracellular domain; also called 3a; CD16
T9 sequence (P08637 other isoform, or with tags, fused parts or gaps): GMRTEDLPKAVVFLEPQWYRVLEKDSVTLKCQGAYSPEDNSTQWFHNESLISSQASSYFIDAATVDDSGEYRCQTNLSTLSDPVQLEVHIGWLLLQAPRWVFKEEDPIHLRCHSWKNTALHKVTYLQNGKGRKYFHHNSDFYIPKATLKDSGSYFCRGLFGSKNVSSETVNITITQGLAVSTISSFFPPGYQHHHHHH

Row | Binder | He/Con 1a (FcγRIa) | He/Con 2aR (FcγRIIa(R)) | He/Con 2aH (FcγRIIa(H)) | He/Con 2b (FcγRIIb) | He/Con 1a [1] | He/Con 2aR [2] | He/Con 2aH [3] | He/Con 2b [4] | He/Con 3a [5]
1 | GpH7-A5/GpH7-B3 variant Y300_11K/GpL16-k0 (antibody, human IgG1, kappa, He Ab: heterodimerized IgG1, one H chain mutated) heavy 1: not shown heavy 2: not shown light: DIVMTQSPLSLPVTPGEPASISCQASESLVHSNRNTYLHWYLQKPGQSPQLLIYKVSNRFSGVPDRFSGSGSGTDFTLKISRVEAEDVGVYYCSQNTHVPPTFGQGTKVEIERTVAAPSVFIFPPSDEQLKSGTASVVCLLNNFYPREAKVQWKVDNALQSGNSQESVTEQDSKDSTYSLSSTLTLSKADYEKHKVYACEVTHQGLSSPVTKSFNRGEC | 101% | 73.1% | 74.2% | 67.4% |  |  |  |  | 
2 | GpH7-A5/GpH7-B3 variant T335_14T/GpL16-k0 (antibody, human IgG1, kappa, also called He Ab) heavy 1: not shown heavy 2: not shown light: DIVMTQSPLSLPVTPGEPASISCQASESLVHSNRNTYLHWYLQKPGQSPQLLIYKVSNRFSGVPDRFSGSGSGTDFTLKISRVEAEDVGVYYCSQNTHVPPTFGQGTKVEIERTVAAPSVFIFPPSDEQLKSGTASVVCLLNNFYPREAKVQWKVDNALQSGNSQESVTEQDSKDSTYSLSSTLTLSKADYEKHKVYACEVTHQGLSSPVTKSFNRGEC |  |  |  |  | 110% | 116% | 112% | 116% | 104%
3 | GpH7-A5/GpH7-B3 variant Y300_20W/GpL16-k0 (antibody, human IgG1, kappa, He Ab: heterodimerized IgG1, one H chain mutated) heavy 1: not shown heavy 2: not shown light: DIVMTQSPLSLPVTPGEPASISCQASESLVHSNRNTYLHWYLQKPGQSPQLLIYKVSNRFSGVPDRFSGSGSGTDFTLKISRVEAEDVGVYYCSQNTHVPPTFGQGTKVEIERTVAAPSVFIFPPSDEQLKSGTASVVCLLNNFYPREAKVQWKVDNALQSGNSQESVTEQDSKDSTYSLSSTLTLSKADYEKHKVYACEVTHQGLSSPVTKSFNRGEC | 106% | 104% | 103% | 110% |  |  |  |  | 
4 | GpH7-A5/GpH7-B3 variant A330_12R/GpL16-k0 (antibody, human IgG1, kappa, heterodimerized IgG1 (He Ab), mutation in one H chain only; also called He Ab) heavy 1: not shown heavy 2: not shown light: DIVMTQSPLSLPVTPGEPASISCQASESLVHSNRNTYLHWYLQKPGQSPQLLIYKVSNRFSGVPDRFSGSGSGTDFTLKISRVEAEDVGVYYCSQNTHVPPTFGQGTKVEIERTVAAPSVFIFPPSDEQLKSGTASVVCLLNNFYPREAKVQWKVDNALQSGNSQESVTEQDSKDSTYSLSSTLTLSKADYEKHKVYACEVTHQGLSSPVTKSFNRGEC |  |  |  |  | 103% | 116% | 116% | 95.8% | 77.3%
5 | GpH7-A5/GpH7-B3 variant A330_05P/GpL16-k0 (antibody, human IgG1, kappa, heterodimerized IgG1 (He Ab), mutation in one H chain only; also called He Ab) heavy 1: not shown heavy 2: not shown light: DIVMTQSPLSLPVTPGEPASISCQASESLVHSNRNTYLHWYLQKPGQSPQLLIYKVSNRFSGVPDRFSGSGSGTDFTLKISRVEAEDVGVYYCSQNTHVPPTFGQGTKVEIERTVAAPSVFIFPPSDEQLKSGTASVVCLLNNFYPREAKVQWKVDNALQSGNSQESVTEQDSKDSTYSLSSTLTLSKADYEKHKVYACEVTHQGLSSPVTKSFNRGEC |  |  |  |  | 105% | 129% | 92.6% | 154% | 152%
6 | GpH7-A5/GpH7-B3 variant Y300_13S/GpL16-k0 (antibody, human IgG1, kappa, He Ab: heterodimerized IgG1, one H chain mutated) heavy 1: not shown heavy 2: not shown light: DIVMTQSPLSLPVTPGEPASISCQASESLVHSNRNTYLHWYLQKPGQSPQLLIYKVSNRFSGVPDRFSGSGSGTDFTLKISRVEAEDVGVYYCSQNTHVPPTFGQGTKVEIERTVAAPSVFIFPPSDEQLKSGTASVVCLLNNFYPREAKVQWKVDNALQSGNSQESVTEQDSKDSTYSLSSTLTLSKADYEKHKVYACEVTHQGLSSPVTKSFNRGEC | 105% | 72.4% | 97.8% | 70.4% |  |  |  |  | 
7 | GpH7-A5/GpH7-B3 variant A330_15Y/GpL16-k0 (antibody, human IgG1, kappa, heterodimerized IgG1 (He Ab), mutation in one H chain only; also called He Ab) heavy 1: not shown heavy 2: not shown light: DIVMTQSPLSLPVTPGEPASISCQASESLVHSNRNTYLHWYLQKPGQSPQLLIYKVSNRFSGVPDRFSGSGSGTDFTLKISRVEAEDVGVYYCSQNTHVPPTFGQGTKVEIERTVAAPSVFIFPPSDEQLKSGTASVVCLLNNFYPREAKVQWKVDNALQSGNSQESVTEQDSKDSTYSLSSTLTLSKADYEKHKVYACEVTHQGLSSPVTKSFNRGEC |  |  |  |  | 108% | 114% | 106% | 107% | 122%
8 | GpH7-A5/GpH7-B3 variant Y300_18N/GpL16-k0 (antibody, human IgG1, kappa, He Ab: heterodimerized IgG1, one H chain mutated) heavy 1: not shown heavy 2: not shown light: DIVMTQSPLSLPVTPGEPASISCQASESLVHSNRNTYLHWYLQKPGQSPQLLIYKVSNRFSGVPDRFSGSGSGTDFTLKISRVEAEDVGVYYCSQNTHVPPTFGQGTKVEIERTVAAPSVFIFPPSDEQLKSGTASVVCLLNNFYPREAKVQWKVDNALQSGNSQESVTEQDSKDSTYSLSSTLTLSKADYEKHKVYACEVTHQGLSSPVTKSFNRGEC | 101% | 96.2% | 101% | 92.7% |  |  |  |  | 
9 | GpH7-A5/GpH7-B3 variant A330_11K/GpL16-k0 (antibody, human IgG1, kappa, heterodimerized IgG1 (He Ab), mutation in one H chain only; also called He Ab) heavy 1: not shown heavy 2: not shown light: DIVMTQSPLSLPVTPGEPASISCQASESLVHSNRNTYLHWYLQKPGQSPQLLIYKVSNRFSGVPDRFSGSGSGTDFTLKISRVEAEDVGVYYCSQNTHVPPTFGQGTKVEIERTVAAPSVFIFPPSDEQLKSGTASVVCLLNNFYPREAKVQWKVDNALQSGNSQESVTEQDSKDSTYSLSSTLTLSKADYEKHKVYACEVTHQGLSSPVTKSFNRGEC |  |  |  |  | 107% | 124% | 118% | 107% | 91.8%
10 | GpH7-A5/GpH7-B3 variant Y300_16H/GpL16-k0 (antibody, human IgG1, kappa, He Ab: heterodimerized IgG1, one H chain mutated) heavy 1: not shown heavy 2: not shown light: DIVMTQSPLSLPVTPGEPASISCQASESLVHSNRNTYLHWYLQKPGQSPQLLIYKVSNRFSGVPDRFSGSGSGTDFTLKISRVEAEDVGVYYCSQNTHVPPTFGQGTKVEIERTVAAPSVFIFPPSDEQLKSGTASVVCLLNNFYPREAKVQWKVDNALQSGNSQESVTEQDSKDSTYSLSSTLTLSKADYEKHKVYACEVTHQGLSSPVTKSFNRGEC | 105% | 103% | 105% | 114% |  |  |  |  | 
11 | GpH7-A5/GpH7-B3 variant Y300_14T/GpL16-k0 (antibody, human IgG1, kappa, He Ab: heterodimerized IgG1, one H chain mutated) heavy 1: not shown heavy 2: not shown light: DIVMTQSPLSLPVTPGEPASISCQASESLVHSNRNTYLHWYLQKPGQSPQLLIYKVSNRFSGVPDRFSGSGSGTDFTLKISRVEAEDVGVYYCSQNTHVPPTFGQGTKVEIERTVAAPSVFIFPPSDEQLKSGTASVVCLLNNFYPREAKVQWKVDNALQSGNSQESVTEQDSKDSTYSLSSTLTLSKADYEKHKVYACEVTHQGLSSPVTKSFNRGEC | 105% | 78.6% | 104% | 72.7% |  |  |  |  | 
12 | GpH7-A5/GpH7-B3 variant A330_06M/GpL16-k0 (antibody, human IgG1, kappa, heterodimerized IgG1 (He Ab), mutation in one H chain only; also called He Ab) heavy 1: not shown heavy 2: not shown light: DIVMTQSPLSLPVTPGEPASISCQASESLVHSNRNTYLHWYLQKPGQSPQLLIYKVSNRFSGVPDRFSGSGSGTDFTLKISRVEAEDVGVYYCSQNTHVPPTFGQGTKVEIERTVAAPSVFIFPPSDEQLKSGTASVVCLLNNFYPREAKVQWKVDNALQSGNSQESVTEQDSKDSTYSLSSTLTLSKADYEKHKVYACEVTHQGLSSPVTKSFNRGEC |  |  |  |  | 108% | 107% | 101% | 90.9% | 139%
13 | GpH7-A5/GpH7-B3 variant Y300_19Q/GpL16-k0 (antibody, human IgG1, kappa, He Ab: heterodimerized IgG1, one H chain mutated) heavy 1: not shown heavy 2: not shown light: DIVMTQSPLSLPVTPGEPASISCQASESLVHSNRNTYLHWYLQKPGQSPQLLIYKVSNRFSGVPDRFSGSGSGTDFTLKISRVEAEDVGVYYCSQNTHVPPTFGQGTKVEIERTVAAPSVFIFPPSDEQLKSGTASVVCLLNNFYPREAKVQWKVDNALQSGNSQESVTEQDSKDSTYSLSSTLTLSKADYEKHKVYACEVTHQGLSSPVTKSFNRGEC | 106% | 119% | 107% | 142% |  |  |  |  | 
